Measured values from the supplement of paper PMC9170038.

Test system: MS2 coat protein
Experiment: apparent KD of MS2 coat protein; designed switch direction (-1 OFF switch, 1 ON switch): -1; higher = weaker reporter binding
In short: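 SNAP-549-labelled MS2 coat protein was titrated, doubling from 0.7 or 1.5 nM to 3 µM, over designed RNA switches transcribed on Illumina chips by stalled E. coli RNA polymerase. Runs were done without input, with 200 uM small-molecule ligand, or with an oligonucleotide input. Apparent KD is the per-design median over clusters of curve-fitted normalised fluorescence.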

[1] = input ligand: microRNA oligo, concentration not stated
[2] = Eterna round: R95, input ligand: microRNA oligo, concentration not stated

UACAUGAGGAUCACCCAUGUUUUGUCGUGUAUGGUAUUUAUCUAGGAUAUCAAUUGAUUUAAUUAUGAGAAGGAGAAUAUUAAU [JMF's solution 61] (Eterna round: R96, puzzle: Exclusion NG 3)
apparent KD of MS2 coat protein [1]: 29.3 nM

UAGAAUCGAGGAUAUACAUGAGGAUCACCCAUGUGUGGCCAUUUGGUGUGGUCGUCAGGUAGAAGGCGAUUACA [Exclusion 3 - Mod of Jieux's Gilly Gone Silly 23 v.5] (puzzle: Exclusion 3)
apparent KD of MS2 coat protein [2]: 141 nM

UUGGUGUCAGGAUAUGCUUAAUGUGUUUUAUUAUAAUAUAUACAUGAGGAUCACCCAUGUAGAAGGGACAUUGU [LRO-Excl2-09-Fireball XL5] (Eterna round: R97, puzzle: Exclusion 2)
apparent KD of MS2 coat protein (input ligand: FMN 200 uM): 48 nM
apparent KD of MS2 coat protein (input ligand: none): 48.5 nM

AGUCGGCGAGGAUAUACAUGAGGAUCACCCAUGUGAUAGAGUGCACGCGUACGUGUACGUAGAAGGCGCUGACA [Mat - Exclusion 3 - Mod of JL D95] (puzzle: Exclusion 3)
apparent KD of MS2 coat protein [2]: 12.6 nM

CUUCAAGCACCAGAGCUCACACUUAUACCUGCUCUGGUGACAUGAGGAUCACCCAUGUUUUUUGCCCGUCUUAUCUU [Sensor v3, turn-off variant 2 (MOD of Leso v.2)] (Eterna round: R96, puzzle: Sensor v3, turn-off variant 2)
apparent KD of MS2 coat protein (input ligand: FMN 200 uM): 178 nM
apparent KD of MS2 coat protein [1]: 101 nM
apparent KD of MS2 coat protein (input ligand: none): 250 nM

AGUCCUAGUCAAGGAUAUACACCGAAGAAAUACGUAGAAGGUGACAUGAGGAUCACCCAUGUAGGGCCUCUGGAAACAGAGGAA [Indiinbi] (Eterna round: R96, puzzle: Exclusion NG 1)
apparent KD of MS2 coat protein (input ligand: FMN 200 uM): 208 nM
apparent KD of MS2 coat protein [1]: 107 nM
apparent KD of MS2 coat protein (input ligand: none): 143 nM

AAGAUGUAAGGAUAUGCUGCUCGUCACAAAAGUGAUGAGUAGCAGAAGGUACAUGAGGAUCACCCAUGUAGAGA [Opal 38] (Eterna round: R96, puzzle: Exclusion 4)
apparent KD of MS2 coat protein (input ligand: FMN 200 uM): 60.6 nM
apparent KD of MS2 coat protein [1]: 18.2 nM
apparent KD of MS2 coat protein (input ligand: none): 22.7 nM

UGAGCUUCAGGAUAUACAAGGCGACCGUGAGGUCGAAGGUUACAUGAGGAUCACCCAUGUAGAAGGGAAGUUCU [Mat - Exclusion 2 - JL Mod - D13] (Eterna round: R97, puzzle: Exclusion 2)
apparent KD of MS2 coat protein (input ligand: FMN 200 uM): 36.7 nM
apparent KD of MS2 coat protein (input ligand: none): 21.6 nM

UUUUAACAUGAGGAUCACCCAUGUGAGGAUAUCGAAAUUUAUAUUAAUAUUUAUAAUACGAGAAGGCACAUUUU [JMF 54] (puzzle: Exclusion 1)
apparent KD of MS2 coat protein [2]: 84.4 nM

UUUUUAUUUGAAGGAUAUACUUAACAUGAGGAUCACCCAUGUGGUGUUGUGAGUGAGUGAGUUUAGUAGAAGGUCAAUUCUUUU [JMF's solution 85] (Eterna round: R96, puzzle: Exclusion NG 2)
apparent KD of MS2 coat protein [1]: 391 nM

CCUCCACAGGAGGAUAUCAUCAAACUAUUGUGAUGAGAAGGCCUGACAUGAGGAUCACCCAUGUUAACGUGAUG [Mod of Brourd 8 - Jieux - Exclusion 6] (Eterna round: R97, puzzle: Exclusion 6)
apparent KD of MS2 coat protein (input ligand: FMN 200 uM): 209 nM
apparent KD of MS2 coat protein (input ligand: none): 58.1 nM

ACAAGCUUAAUCAGUAAGAACAUGAGGAUCACCCAUGUAAAAGGGAAGACAAUUGGGUUAUUUAAAGCUCGUCUUAU [JR_STOV1_Sub015] (Eterna round: R97, puzzle: Sensor, turn-off variant 1)
apparent KD of MS2 coat protein (input ligand: FMN 200 uM): 62.7 nM
apparent KD of MS2 coat protein (input ligand: none): 111 nM

CGGCGCCUAGGAUAUACUCUGAGAAUCAGUUGGGUCUCCGGACAUGAGGAUCACCCAUGUAGAAGGAGGAAGCU [EX2 C.11] (Eterna round: R97, puzzle: Exclusion 2)
apparent KD of MS2 coat protein (input ligand: FMN 200 uM): 21.3 nM
apparent KD of MS2 coat protein (input ligand: none): 18.4 nM

GCAGUGCGAGGAUAUACAUGAGGAUCACCCAUGUGAGAAGAAUAAGUGAGGAAGAAAAGUAGAAGGCGCGUUGG [Mat - Exclusion 3 - Mod of Salish D68] (puzzle: Exclusion 3)
apparent KD of MS2 coat protein (Eterna round: R95, input ligand: FMN 200 uM): 71.8 nM
apparent KD of MS2 coat protein [2]: 47.4 nM
apparent KD of MS2 coat protein (Eterna round: R95, input ligand: none): 54.6 nM

CUUAAACAUGAGGAUCACCCAUGUGAGGAUAUGAUGCGAAUAAAGAAAGAAGAAAGCAUCAGAAGGCACAUAUG (Eterna round: R96, puzzle: Exclusion 1)
apparent KD of MS2 coat protein [1]: 65.9 nM

UACACUGCAUGAGGAUCAAACAUGAGGAUCACCCAUGUAUAGCAAGCUUUUUGCGCGUCUUAUAAUUAUGUAGUGUA [Electric Eye 19 - Jieux - Sensor, turn-off variant 1] (Eterna round: R97, puzzle: Sensor, turn-off variant 1)
apparent KD of MS2 coat protein (input ligand: FMN 200 uM): 15.8 nM
apparent KD of MS2 coat protein (input ligand: none): 15.4 nM

UUAGAGUCAGGAUAUGCAGCUCCCUGUAGGGCCGAACAGCAGUAGAAGGGACAUGAGGAUCACCCAUGUGAUAG [Eternabot (L2) Solution 52] (Eterna round: R97, puzzle: Exclusion 4)
apparent KD of MS2 coat protein (input ligand: FMN 200 uM): 86.1 nM
apparent KD of MS2 coat protein (input ligand: none): 81.5 nM
